# Data reported in paper PMC4475299, “Characterization and applications of Nanobodies against human procalcitonin selected from a novel naïve Nanobody phage display library” (Journal of Nanobiotechnology, 2015).
# Target: T1, human procalcitonin (Homo sapiens, UniProt P01258)
# T1 construct: human procalcitonin (PCT), the product of preprocalcitonin after removal of the signal peptide; Bought protein; also called PCT; source: bought: Huibiao Biological Technology Co., Ltd
# Experiment: SPR; SPRi on PlexArray HT; Nbs spotted and immobilised on NanoCapture 3D-chip; PCT injected at 9.7, 29.2, 87.6 and 263 nM in PBST, 2 uL/s; 1:1 Langmuir fit
# Conditions: both partners purified
Binder,Kd,koff,kon
"PCT Nb1 (VHH, VHH from a naïve bactrian camel phage display library; Expressed from phagemid pMECS; source: E. coli WK6, periplasmic extract by osmotic shock, purified (Ni-NTA, 500 mM imidazole); not shown: HA, C-terminal, kept) VHH: QVQLQESGGGSVQAGGSLRLSCLASGYTYSSYCMGWFRQAPGKEREGVAAIGSDGSTSYADSVKGRFTISQDNAKNTLYLQMNSLKPEDTAMYYCAASKSEYDCYSGSGGLFGYWGQGTQVTVSS",12.3 nM,0.00051 s⁻¹,41600 M⁻¹ s⁻¹
"PCT Nb2 (VHH, VHH from a naïve bactrian camel phage display library; Expressed from phagemid pMECS; source: E. coli WK6, periplasmic extract by osmotic shock, purified (Ni-NTA, 500 mM imidazole); not shown: HA, C-terminal, kept) VHH: QVQLQESGGGSVQAGGSLRLSCAASTSSNVNVCMGWFRQAPGKEREGVAVIARDSETNYAASVKGRFTISQDNAKNTLYLQLNSLKPEDTAMYYCAAGPCANIRGSWSNSRLLRYNFWGQGTQVTVSS",1.34 nM,0.000197 s⁻¹,147000 M⁻¹ s⁻¹
"PCT Nb3 (VHH, VHH from a naïve bactrian camel phage display library; Expressed from phagemid pMECS; source: E. coli WK6, periplasmic extract by osmotic shock, purified (Ni-NTA, 500 mM imidazole); not shown: HA, C-terminal, kept) VHH: QVQLQESGGGSVQVGGSLRLSCAASGYTYSSACMGWFRQAPGKEREWVGSIVSDSDDRTNYADAVKGRFTITQDNAKNTVYLQMNSLKPEDTAMYYCAARPGNCFIATKTRRYDYWGQGTQVTVSS",8.89 nM,0.000383 s⁻¹,43100 M⁻¹ s⁻¹
